Source: article PMC6042327 (BMC Biology, 2018)

Target: the molecule itself
Assay: DEER (EPR) spectroscopy; MTSL spin label on a single cysteine; distances between homologous sites in each monomer; 300-500 uM, D2O buffer with 50% d8-glycerol, flash frozen, measured at 50 K

Row | Protein | binding result
1 | SGTA NT-TPR S88C single-cysteine mutant, MTSL spin-labelled (domain or fragment, human, UniProt O43765 1-213, looked up, MTSL spin label on cysteine 88, SGTA, human, residues 1-213; all four wild-type cysteines changed to serine, then S88C; also called C-terminal deletion mutant S88C; source: E. coli, prepared in the same way as the wild-type versions, MTSL spin-labelled, size-exclusion chromatography; not shown: thioredoxin A, N-terminal, cleaved; His6, N-terminal, cleaved) MDNKKRLAYAIIQFLHDQLRHGGLSSDAQESLEVAIQSLETAFGVTVEDSDLALPQTLPEIFEAAATGKEMPQDLRSPARTPPSEEDCAEAERLKTEGNEQMKVENFEAAVHFYGKAIELNPANAVYFSNRAAAYSKLGNYAGAVQDSERAISIDPAYSKAYGRMGLALSSLNKHVEAVAYYKKALELDPDNETYKSNLKIAELKLREAPSPT | binds
2 | SGTA NT-TPR C153 single-cysteine variant, MTSL spin-labelled (domain or fragment, human, UniProt O43765 1-213, looked up, MTSL spin label on cysteine 153, SGTA, human, residues 1-213; the other three wild-type cysteines changed to serine, wild-type C153 kept; also called C-terminal deletion mutant C153; source: E. coli, prepared in the same way as the wild-type versions, MTSL spin-labelled, size-exclusion chromatography; not shown: thioredoxin A, N-terminal, cleaved; His6, N-terminal, cleaved) MDNKKRLAYAIIQFLHDQLRHGGLSSDAQESLEVAIQSLETAFGVTVEDSDLALPQTLPEIFEAAATGKEMPQDLRSPARTPPSEEDSAEAERLKTEGNEQMKVENFEAAVHFYGKAIELNPANAVYFSNRAAAYSKLGNYAGAVQDSERAICIDPAYSKAYGRMGLALSSLNKHVEAVAYYKKALELDPDNETYKSNLKIAELKLREAPSPT | binds
3 | SGTA NT-TPR S197C single-cysteine mutant, MTSL spin-labelled (domain or fragment, human, UniProt O43765 1-213, looked up, MTSL spin label on cysteine 197, SGTA, human, residues 1-213; all four wild-type cysteines changed to serine, then S197C; also called C-terminal deletion mutant S197C; source: E. coli, prepared in the same way as the wild-type versions, MTSL spin-labelled, size-exclusion chromatography; not shown: thioredoxin A, N-terminal, cleaved; His6, N-terminal, cleaved) MDNKKRLAYAIIQFLHDQLRHGGLSSDAQESLEVAIQSLETAFGVTVEDSDLALPQTLPEIFEAAATGKEMPQDLRSPARTPPSEEDSAEAERLKTEGNEQMKVENFEAAVHFYGKAIELNPANAVYFSNRAAAYSKLGNYAGAVQDSERAISIDPAYSKAYGRMGLALSSLNKHVEAVAYYKKALELDPDNETYKCNLKIAELKLREAPSPT | binds
4 | SGTA NT-TPR S136C single-cysteine mutant, MTSL spin-labelled (domain or fragment, human, UniProt O43765 1-213, looked up, MTSL spin label on cysteine 136, SGTA, human, residues 1-213; all four wild-type cysteines changed to serine, then S136C; also called C-terminal deletion mutant S136C; source: E. coli, prepared in the same way as the wild-type versions, MTSL spin-labelled, size-exclusion chromatography; not shown: thioredoxin A, N-terminal, cleaved; His6, N-terminal, cleaved) MDNKKRLAYAIIQFLHDQLRHGGLSSDAQESLEVAIQSLETAFGVTVEDSDLALPQTLPEIFEAAATGKEMPQDLRSPARTPPSEEDSAEAERLKTEGNEQMKVENFEAAVHFYGKAIELNPANAVYFSNRAAAYCKLGNYAGAVQDSERAISIDPAYSKAYGRMGLALSSLNKHVEAVAYYKKALELDPDNETYKSNLKIAELKLREAPSPT | binds
5 | FL SGTA C153 single-cysteine variant, MTSL spin-labelled (natural protein, human, UniProt O43765 1-313, looked up, MTSL spin label on cysteine 153, SGTA, human, residues 1-313; the other three wild-type cysteines changed to serine, wild-type C153 kept; source: E. coli, prepared in the same way as the wild-type versions, MTSL spin-labelled, size-exclusion chromatography; not shown: thioredoxin A, N-terminal, cleaved; His6, N-terminal, cleaved) MDNKKRLAYAIIQFLHDQLRHGGLSSDAQESLEVAIQSLETAFGVTVEDSDLALPQTLPEIFEAAATGKEMPQDLRSPARTPPSEEDSAEAERLKTEGNEQMKVENFEAAVHFYGKAIELNPANAVYFSNRAAAYSKLGNYAGAVQDSERAICIDPAYSKAYGRMGLALSSLNKHVEAVAYYKKALELDPDNETYKSNLKIAELKLREAPSPTGGVGSFDIAGLLNNPGFMSMASNLMNNPQIQQLMSGMISGGNNPLGTPGTSPSQNDLASLIQAGQQFAQQMQQQNPELIEQLRSQIRSRTPSASNDDQQE | binds
6 | FL SGTA S136C single-cysteine mutant, MTSL spin-labelled (natural protein, human, UniProt O43765 1-313, looked up, MTSL spin label on cysteine 136, SGTA, human, residues 1-313; all four wild-type cysteines changed to serine, then S136C; source: E. coli, prepared in the same way as the wild-type versions, MTSL spin-labelled, size-exclusion chromatography; not shown: thioredoxin A, N-terminal, cleaved; His6, N-terminal, cleaved) MDNKKRLAYAIIQFLHDQLRHGGLSSDAQESLEVAIQSLETAFGVTVEDSDLALPQTLPEIFEAAATGKEMPQDLRSPARTPPSEEDSAEAERLKTEGNEQMKVENFEAAVHFYGKAIELNPANAVYFSNRAAAYCKLGNYAGAVQDSERAISIDPAYSKAYGRMGLALSSLNKHVEAVAYYKKALELDPDNETYKSNLKIAELKLREAPSPTGGVGSFDIAGLLNNPGFMSMASNLMNNPQIQQLMSGMISGGNNPLGTPGTSPSQNDLASLIQAGQQFAQQMQQQNPELIEQLRSQIRSRTPSASNDDQQE | binds
7 | FL SGTA S197C single-cysteine mutant, MTSL spin-labelled (natural protein, human, UniProt O43765 1-313, looked up, MTSL spin label on cysteine 197, SGTA, human, residues 1-313; all four wild-type cysteines changed to serine, then S197C; source: E. coli, prepared in the same way as the wild-type versions, MTSL spin-labelled, size-exclusion chromatography; not shown: thioredoxin A, N-terminal, cleaved; His6, N-terminal, cleaved) MDNKKRLAYAIIQFLHDQLRHGGLSSDAQESLEVAIQSLETAFGVTVEDSDLALPQTLPEIFEAAATGKEMPQDLRSPARTPPSEEDSAEAERLKTEGNEQMKVENFEAAVHFYGKAIELNPANAVYFSNRAAAYSKLGNYAGAVQDSERAISIDPAYSKAYGRMGLALSSLNKHVEAVAYYKKALELDPDNETYKCNLKIAELKLREAPSPTGGVGSFDIAGLLNNPGFMSMASNLMNNPQIQQLMSGMISGGNNPLGTPGTSPSQNDLASLIQAGQQFAQQMQQQNPELIEQLRSQIRSRTPSASNDDQQE | binds
8 | FL SGTA S88C single-cysteine mutant, MTSL spin-labelled (natural protein, human, UniProt O43765 1-313, looked up, MTSL spin label on cysteine 88, SGTA, human, residues 1-313; all four wild-type cysteines changed to serine, then S88C; source: E. coli, prepared in the same way as the wild-type versions, MTSL spin-labelled, size-exclusion chromatography; not shown: thioredoxin A, N-terminal, cleaved; His6, N-terminal, cleaved) MDNKKRLAYAIIQFLHDQLRHGGLSSDAQESLEVAIQSLETAFGVTVEDSDLALPQTLPEIFEAAATGKEMPQDLRSPARTPPSEEDCAEAERLKTEGNEQMKVENFEAAVHFYGKAIELNPANAVYFSNRAAAYSKLGNYAGAVQDSERAISIDPAYSKAYGRMGLALSSLNKHVEAVAYYKKALELDPDNETYKSNLKIAELKLREAPSPTGGVGSFDIAGLLNNPGFMSMASNLMNNPQIQQLMSGMISGGNNPLGTPGTSPSQNDLASLIQAGQQFAQQMQQQNPELIEQLRSQIRSRTPSASNDDQQE | binds

Target: the molecule itself
Assay: native MS; protein 5-10 uM in 0.20-0.75 M ammonium acetate pH 7.0, electrosprayed, source temperature 20 °C; self-association (monomer to dimer)

Row | Protein | stoichiometry N
9 | SGTA NT-TPR (1-213) (domain or fragment, human, UniProt O43765 1-213, looked up, SGTA, human, residues 1-213 (N-terminal dimerisation domain and TPR domain); also called version lacking the C-terminal domain; not shown: thioredoxin A, N-terminal, cleaved; His6, N-terminal, cleaved) MDNKKRLAYAIIQFLHDQLRHGGLSSDAQESLEVAIQCLETAFGVTVEDSDLALPQTLPEIFEAAATGKEMPQDLRSPARTPPSEEDSAEAERLKTEGNEQMKVENFEAAVHFYGKAIELNPANAVYFCNRAAAYSKLGNYAGAVQDCERAICIDPAYSKAYGRMGLALSSLNKHVEAVAYYKKALELDPDNETYKSNLKIAELKLREAPSPT | 2
10 | SGTA C-terminal domain (CT; residues 213-313) (domain or fragment, human, UniProt O43765 213-313, looked up, small glutamine-rich tetratricopeptide repeat-containing protein alpha (SGTA), human, residues 213-313 (complete C-terminal domain); also called C-terminal domain of SGTA; not shown: thioredoxin A, N-terminal, cleaved; His6, N-terminal, cleaved) TGGVGSFDIAGLLNNPGFMSMASNLMNNPQIQQLMSGMISGGNNPLGTPGTSPSQNDLASLIQAGQQFAQQMQQQNPELIEQLRSQIRSRTPSASNDDQQE | 2
